The text below walks through data of patent publication US20210395716.

The data set concerns the target β-amyloid peptide (1-42) (UniProt P05067).

Sequence of β-amyloid peptide (1-42) (P05067 whole entry, looked up, tested part not stated): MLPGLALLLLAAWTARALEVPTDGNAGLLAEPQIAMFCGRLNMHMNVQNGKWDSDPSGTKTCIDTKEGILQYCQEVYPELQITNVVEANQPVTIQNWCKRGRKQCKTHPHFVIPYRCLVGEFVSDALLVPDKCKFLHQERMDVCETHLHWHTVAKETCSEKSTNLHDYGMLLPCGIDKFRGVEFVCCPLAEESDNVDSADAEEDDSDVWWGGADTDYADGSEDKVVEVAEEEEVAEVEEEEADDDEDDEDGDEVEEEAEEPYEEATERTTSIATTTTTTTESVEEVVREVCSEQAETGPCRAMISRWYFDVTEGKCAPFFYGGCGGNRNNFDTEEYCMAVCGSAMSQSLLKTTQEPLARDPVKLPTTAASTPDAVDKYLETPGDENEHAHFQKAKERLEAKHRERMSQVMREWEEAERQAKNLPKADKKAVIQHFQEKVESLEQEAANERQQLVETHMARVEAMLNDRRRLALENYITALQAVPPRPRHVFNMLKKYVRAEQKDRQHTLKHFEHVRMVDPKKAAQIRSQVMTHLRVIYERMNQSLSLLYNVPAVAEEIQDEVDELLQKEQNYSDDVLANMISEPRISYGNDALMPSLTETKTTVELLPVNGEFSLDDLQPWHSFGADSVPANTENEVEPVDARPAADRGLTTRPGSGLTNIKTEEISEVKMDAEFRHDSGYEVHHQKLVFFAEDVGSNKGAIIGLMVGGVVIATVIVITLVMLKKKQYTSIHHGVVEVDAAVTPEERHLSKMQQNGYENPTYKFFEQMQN

yeast NEP (yNEP) returned an Abeta HPLC, per hr. (sample yNEP) of 0.46 per hr; an Abeta HPLC, rate (sample yNEP) (million sq unt/min) of 0.0137; an Abeta HPLC, units/µL (sample yNEP) of 0.0274 units/µL; an Abeta HPLC, units/µg (sample yNEP) of 0.008 units/µg.
